Publication PMC10023157, “Peptides that Mimic RS repeats modulate phase separation of SRSF1, revealing a reliance on combined stacking and electrostatic interactions”

Experiments:
Experiment in all cases: not stated; Fluorescence polarization: 100 mM ER4 peptide, 400 mM Arg/Glu, pH 6.5; temperature not stated; three technical replicates
Conditions in all cases: protein: recombinant; tags: SUMO (pSMT3) His tag removed by Ulp1
[1] = target: SRSF1 T248C (human, UniProt Q07955 1-248, C16S;C148S;T248C)
[2] = target: SRSF1 NoC (human, UniProt Q07955 1-248, C16S;C148S)
[3] = target: SRSF1 N220C (human, UniProt Q07955 1-248, C16S;C148S;N220C)

Measured: binding result

Sequence of SRSF1 T248C (Q07955 whole entry C16S/C148S/T248C): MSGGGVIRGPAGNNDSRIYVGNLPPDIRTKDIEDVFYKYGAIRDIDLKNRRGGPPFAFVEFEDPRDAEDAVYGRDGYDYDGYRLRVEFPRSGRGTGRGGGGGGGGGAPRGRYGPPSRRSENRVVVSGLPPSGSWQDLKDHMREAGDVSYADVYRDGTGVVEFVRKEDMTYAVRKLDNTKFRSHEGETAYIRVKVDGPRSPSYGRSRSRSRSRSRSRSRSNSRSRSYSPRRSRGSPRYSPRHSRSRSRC
Sequence of SRSF1 N220C (Q07955 whole entry C16S/C148S/N220C): as the sequence (Q07955 whole entry C16S/C148S/T248C) above, with N220C, C248T counted along it
Sequence of SRSF1 NoC (Q07955 whole entry C16S/C148S): as the sequence (Q07955 whole entry C16S/C148S/T248C) above, with C248T counted along it

B1: UCAGAGGA (SRSF1 cognate RNA) (ssRNA)
RNA: UCAGAGGA
binds: all assays above
